Results: patent US11026999B2, “Insulin glargine/lixisenatide fixed ratio formulation” (SANOFI-AVENTIS DEUTSCHLAND GMBH, priority 2013, dated 2021)

Test system: type 2 diabetic patients
Assay: Major cardiovascular events adjudicated by CAC (Example 1)
Design: species or system human
Conditions: in vivo
Excerpt: One patient in the combination group and one patient in the insulin glargine group had respectively two events (hospitalization for unstable angina and percutaneous coronary intervention (PCI]) and one event (PCI) adjudicated as major cardiovascular events by cardiovascular events adjudication committee (CAC).

Substance: Gly(A21)-Arg(B31)-Arg(B32)-human insulin [Insulin Glargine]
- Events adjudicated as major cardiovascular events by CAC: one
- Patients with events adjudicated as major cardiovascular events by CAC: one
